According to the supplement of paper PMC10567573:

B1: NP_116010.1 (parent)
chain: HSLRAVSTDPPHHDHHDEFCLMP

What was measured:
[1] = variants of: B1; assay: protein stability index of a GFP-peptide fusion (GPS, HEK-293T) (PSI 1-6); higher = more stable; conditions: c terminus: native
[2] = variants of: B1; assay: as above; conditions: c terminus: native; remark: listed apart in the source

Variant | protein stability index [1] | protein stability index [2]
D9V | 2.11 | 1.94
D9M | 2.23 | 2.04
D9W | 2.52 | 1.81
D9C | 2.45 | 3.11
D9Y | 2.37 | 2.37
D9K | 2.44 | 1.84
D9N | 2.38 | 1.93
D9R | 2.2 | 
D9G | 2.42 | 3.24
D9E | 2.48 | 1.95
D9S | 2.44 | 3.56
D9F | 2.44 | 3.37
H13Y | 2.5 | 2.08
H13D | 3.07 | 2.18
H13C | 2.58 | 2.89
H13V | 2.33 | 1.99
H13W | 2.4 | 1.65
H13M | 2.33 | 3.31
H13I | 2.39 | 2.16
H13F | 2.24 | 3.29
H13S | 2.5 | 2.59
H13K | 2.33 | 2.31
H13L | 2.73 | 2.11
H13Q | 2.59 | 1.89

Variant | protein stability index [1] | protein stability index [2]
H13A | 2.31 | 2.86
H13T | 2.46 | 2.38
H13R | 2.21 | 
H13G | 2.67 | 1.73
H13E | 3 | 2.37
H13N | 2.39 | 1.91
S7W | 2.31 | 3.98
S7R | 2.36 | 1.88
S7T | 2.33 | 3.06
S7Y | 2.31 | 2.02
S7M | 2.74 | 2.65
S7V | 2.39 | 2.7
S7Q | 2.58 | 3.14
S7N | 2.27 | 2.64
S7L | 2.08 | 
S7I | 2.4 | 2.93
P11Q | 2.56 | 1.99
P11A | 2.67 | 2.67
P11V | 2.21 | 1.74
P11S | 2.34 | 2.58
P11C | 2.44 | 1.57
P11N | 2.5 | 2.41
P11G | 2.59 | 2.46
P11R | 2.42 | 2.66

Variant | protein stability index [1] | protein stability index [2]
P11I | 2.58 | 2.28
P11E | 2.72 | 2.81
P11W | 2.16 | 2.29
P11T | 2.24 | 1.9
P11M | 2.71 | 2.95
P11D | 2.73 | 2.3
P11L | 2.55 | 4.46
P11Y | 2.26 | 3.15
P11F | 2.44 | 1.5
P11K | 2.65 | 2.58
P10W | 2.37 | 2.88
P10A | 2.38 | 2.39
P10T | 2.56 | 2.11
P10L | 2.43 | 3.21
P10K | 2.58 | 1.43
P10V | 2.29 | 2.25
P10G | 2.46 | 1.84
P10Y | 2.4 | 2.47
P10R | 2.26 | 3.17
P10N | 2.27 | 1.91
P10F | 2.67 | 
P10S | 2.03 | 2.05
P10C | 2.29 | 2.09
P10E | 2.77 | 2.47

Variant | protein stability index [1] | protein stability index [2]
P10D | 2.88 | 
P10H | 2.43 | 2.57
P10I | 2.48 | 3.15
P10Q | 2.56 | 2.28
P10M | 2.47 | 2.82
D14A | 2.52 | 2.35
D14E | 2.5 | 
D14C | 2.5 | 1.99
D14F | 1.99 | 1.83
D14I | 1.8 | 3.58
D14G | 2.23 | 
T8C | 2.93 | 2.64
T8R | 2.33 | 3.01
T8F | 2.38 | 1.87
T8Y | 2.54 | 2.14
T8K | 2.28 | 2.99
T8S | 2.13 | 2.85
T8Q | 2.46 | 2.69
T8D | 2.53 | 2.23
T8I | 2.59 | 2.13
T8G | 2.68 | 2.59
T8A | 2.75 | 4.04
T8V | 2.26 | 2.82
T8E | 2.45 | 2.89

Variant | protein stability index [1] | protein stability index [2]
T8N | 2.36 | 2.4
T8H | 2.48 | 1.79
T8L | 2.36 | 2.95
T8M | 2.48 | 2.27
T8W | 1.99 | 2.87
H12C | 2.37 | 2.4
H12Q | 2.69 | 2.12
H12D | 2.73 | 2.2
H12K | 2.87 | 3.08
H12R | 2.32 | 2.76
H12F | 2.62 | 2.49
H12G | 2.68 | 2.16
H12S | 2.8 | 2.33
H12A | 2.44 | 1.65
H12W | 2.27 | 3.29
H12E | 2.87 | 2.75
H12Y | 2.46 | 2.19
H12I | 2.53 | 1.98
H12N | 2.58 | 2.79
H12L | 2.79 | 2.83
H12M | 2.52 | 2.12
H12V | 2.73 | 2.67
